Test results as given in the domain aggregation screens of Martell et al. (2025).

Assay: soluble fraction after stress (log2 fold change); higher = more stays soluble; pooled small domains, quantitative proteomics
Conditions: stress: 50 degC
In short: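 Each library was heated to 50°C as a stress step. The libraries, made up of small protein domains, were pooled and analysed at high throughput by quantitative proteomics. The reported value is the base-two logarithm of the fold change in each protein's soluble amount after stress, taken as a measure of aggregation propensity. The higher the value, the more protein stays in solution.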

Sequence | soluble fraction (log2)
HMKVKEYKLVDWISTFTKNEGYGISQKAAMLLAEFLGDDLSRIANEIEKLKLLVEKGTTINDVHIEENI | -0.797
HMKVLFLESIEGSASMGEIKDVANGYARNFLFPNGFAVPATPKNLKNVEELQAKELEIQTERDNWAA | -0.0454
HMKVSDLIGMLGRVTGELAPTGIVLVGNKTWTAISEDASVIASGEQVQVRSVAGLILTVSHQVD | -2.15
HMKVSVPDIMDNSSLRQAEAKLRALGFRVTEPEYISGEKDWVYSVTYKGRTLNAGDKVPHEALLTLHVGNG | -0.0697
HMKVTADVVVADRLKAWIISNNLKPGDRLPTEQKLSEELGVARHTLREGIKRLSQLGIIGSRTGSGMYVKN | 0.0235
HMKWIEILKSKDGNYALLQDEKDTQFVVASGYNPDAAEDQKWGHGSYFIYWNNKENKAEMLMNAIDLFRYR | -2.11
HMKYEFEFPYWSNKEAKHMIVTINYPNGTRATASIQDNDGSNPDYKRIMEEFGEEQIDANTEEGLKRR | -0.0595
HMKYEGEDEYYASLVTEKIAAIGTVTEESEDAIKEARAAYDALTSAQKKLVTNYDVLDEAEK | 0.371
HMKYGPSTVATLKVARLGEMGAFLDAETGDTSDDILLHKTQQTAPVKVGDEVEVFLYLDPKRRLTASMRV | -0.107
HMKYGPSTVAVLTVVRESEMGAFLDAETGRTNDDILLHKTQQTEPVHIGDQVKVFLYLDPKHRLTASMRVP | -1.16
HMKYNETEFKNLVAKLYNGEIEIVGKFTGLSYPILVKDKYGIMLSQKANLILNYRPTINIALNKTEYAMN | -0.0487
HMKYSELLLEIILQSKEHPTAEQIFIEAKKRNPKIVQATVYNNLKNLLAQGRVIRISNPGQPDRYDNT | -0.401
HMKYVDYYATLGVARDADLATITKAYRKLARQTHPDLNQGADNEARFKAAAEAYATLKHPEKRAAYDELGQ | -0.00408
HMKYWTISDLYSKLEEDQVELGAFSEDSNKVTVLDRQGYEHVIKILSSDVPALTELFRKKKVRFAVAG | -0.132
HMKYYIYQGVGASGELTKIAEVTDQKTYTVTGLQAKTTYRFAVSSYNGLRESTKSNIVTVTT | -0.313
HMLAAAVVVYATDKVNVRAEASETADVIGQLEAGSQTTRLEDKDGWSRIDYSNGTQGYMKSEFLSTEAPT | -0.102
HMLADEPTGALDSKTSVQIMALLTEIAQDRLVIMVTHNPELADEYATRIVNLRDGVISDDSDPFNP | -0.079
HMLAEEAFNKQAATAGYVYRDGSYHPAASVAQYDAMPRNYRTNTMAQELSRSQVESQLQQSQ | 0.436
HMLAGKTYEVQTESGGKWTLVASYNVKSQAIQQAQALLESHKYSGVKVIAESDRKGEEVIFNEQSEVT | -0.0442
HMLALKSGQVVVGTIIRRLDNTTAMLRIGNQLFETSFAKGLPKSNHILLRYDAMQGNRFIFTMVE | -0.191
HMLANLNKELQNDAALLKQKAQGNSNLLAKIQDVEQQMKQVNTSSASDEAKAKELQTLQRKLTAYKKALA | 0.0101
HMLAVSVDKDGKVYIQDSETAVDAVTAKLRAISGNNSEIRIFVRGDADVNYGRIMEIMGVINAAGFRKVAL | -0.467
HMLDEIAGQKVRVLEEINNSEGTGKVMYRGVEWMARSVDDAVMAKDSIVTVQSISGVKLMVT | -0.0685
HMLDEKAVRQYLLNTLENSEIKMDRQAIDLFLRLTDLDLSKMMRELQKILLYGQEQEVITVKEIEQ | -0.856
HMLDGFEVGMTVMKKSGTEIGFTGWPSFADKDELPIIERIDTSDSTLLLKFKDMSWWIKASLVEPS | -1.62

Sequence | soluble fraction (log2)
HMLDLPEISARIMEVFETKDRATISELSKLTGTNINTIKKHLSSLVENNYLIKHGKTRGAWYTKST | -0.104
HMLDLVSIGKRIKAERQKNGLTQEALAERIEVSAHYVYELERGLKAMSVPILLRMSEVLHTSTDYLLF | -2.9
HMLDNHPQSKKIRALWLEMAAAGVVRDSSEQALALWVKRETGISALRWLSNEQASSVIEKLKKWQRRAAG | -0.687
HMLDPKVFVGKAGINEGIAKLLLQAFDKADLVKVRFTAERDVMETQMQELARLTGSEVIGNVGRTATF | -0.00291
HMLEAMDSDEAAKVIEQIVNERADFVRSKGMGAIGPLMGPVMGALRGKVDGKQANELLTAAIKKLL | 0.273
HMLEASVYTAEKSGDRLDAFLAEQAGITRSYAQKLIEGGQVTLGGVVPKKNYKLSAGEQVELILPEN | 0.0254
HMLEKVLDNHIHKLRLQHKISQQELADAIGVSRKTISTVETGRFTPSVVIALKIAAHFSVSVEQVFTL | -0.964
HMLEPEVLDLIGQVKSVHHFSVTQSHQLEKLVRHAHTLGFEIAELKSLLASSPNAKSLLSSLDQKLEPLRM | -0.909
HMLEQEQFESKLLKAINNINETQRIAFLMHRIDGKKYAEIASELNISVKAVEKRIHLALIELKKEIENF | -0.871
HMLEQISDINILSGYAKEVIAENPKTVSDYLSGKAAAFQALVGQVMKKTGGRGNPVIIQEILKRLIHKK | 0.116
HMLERKPVLVASRDLPALAVIGKDDLSVELLRTAPVGSYDRPEALLGKRVWVAVPAGSILSAATLEP | -0.103
HMLERPLKLKSHYVSTIYEKVAVQYSEGEEKKSVMGTLIEVNQDTIVLDDRGTIIEIPFKSITRAKTVF | -0.245
HMLETLVYPNPTTDKILLSSPVDYHLFSLKGELVLEGRGSSIEVSQLSKGVYFLNTKTQTFKIIK | -0.383
HMLGARSLNEAVARNLPQILAKYQLIHIAGKNGFNPELQGRGYVQYEYVDTELKDLMALADIVVSR | -1.33
HMLGERIKQIRKQKKMTQTDVATGIITKSMLSMIENGKATPSLPALQAIARRLQVTVEELML | -0.512
HMLGFELVGIRGNNPESTIIILERDDYRLVEQGQNINSSVIFSHIDGSRAYFFDGQTYTFLDI | -2.95
HMLGITEGSLVRVIRSPNFGKIGTVAELPAELRMMESETMVRIAIVEIEGTNFEIPRSNLEVLET | -1.55
HMLGKEVVRAYNISYAIDDKGSLQGDLTAALTGLIPLSKPPVLDQRNRSLYVTATPEQHKDVAALLAKL | -0.171
HMLGSGSKEQQLVILNNILERQVQAFNLQGGQEYPMVTLKNFYNTLSKMIENAGLKNVENYFVNPDVGKQM | -0.302
HMLHMKAALGELMSIPGMRSELAGTLFDRGYTSLAQLRAATLDDLERVNGLERADARRIHDFLRKS | -0.0753
HMLHQSLVVNAASGRVTVSLDIVPDEDNPYAVLRATDDSDEPLAQVRVAPSFKLNRASALAWIESQFARP | -0.821
HMLHSEDATVVRQAIPLLERHVDAATVAVARRNLAQLEQFGRYPRRNQALGRISNPAENAYLRAER | 0.0897
HMLIDQYPYSIIYRLIPHGRSNAVPAAQIVGLTKLDERSIRIYVEAMRREGHIIASSSKGYYFPASIEE | -2.83
HMLIGLNETESLVLDALIANPMRIDQVSAMLKKDVATTLKFLGGLSVRGLVETLFGGRFAPTKIALHARS | -0.276
HMLIIMNSDATKEQVDHVTSRVREAGFKDHIMPGAGKVAIGVTGTGDYDQTKLHLEILPGVFKIMRITK | 0.0895

Sequence | soluble fraction (log2)
HMLIPADETEAKVLSVLSREPLHVDEIRNQAGLPIEKISATLALMELKGMVRQVGGMNYVSV | 0.122
HMLKDKLSDKDFDFYKNKIQIQLQGNPTELKELVRRFSSTEEQQILKTIDYMLDNGFLRIDEDNMIYWK | -0.00515
HMLKDQSIAQLEKNLDDLKGLMRKMFGSSDVPKITKMISDIESSLANFNQSKANKLIVQTTNYISSKL | -0.36
HMLKEDSAYELGLRIFDQALNDYGTSFIDLKEDEYKKVLSIYGYSNPRQLIINIGLGNVIPHLLARDITE | -1.23
HMLKEGIKEKINQLQVYADKNDNIIWYDRVVDILSDKDDSVTDEMIEAAIRTLEEAGISVERKQ | 0.0259
HMLKEGQYSPNHFHWHKMEDIINRGGGTLLIRVYNSLPDEEIDRESDVTVHMDGVTRTVPAGTQLRLE | -0.229
HMLKETGVITASVLNVREDIGTSSNIVAQLKKGMEVNILESRAIAGSETWYRIDAGSIKGWIFGDYI | -3.62
HMLKFGLSQRELQILALLPTDEPLSILAKSLFISESTLKTHLTHIYRKLGVKNRLQAINVARKAGLLK | -0.283
HMLKHSKQRDAIEQFLATRYDHPTAETVYMNLREEYPKLSLATVYRNLSLLAELGNIQKIPTGNGPDRFDG | -0.555
HMLKIAENIYQRRKEKNITQEELADFMMVTKASVSKWETGQSYPDILLLPKLATFFNVTVDELIGYEPQ | -1.2
HMLKIVRSREEVESRLYTIYGNVKGRRLYNFYLSLIIDGLDIVKARTSKNVYYTNIRNLKNAGIDFSQKIN | -2.38
HMLKPKDLHLGDSVRVLSLNLKGTVSSLPDTKGFLFVQMGIMRSKLHISDLQLIDEPVITAP | -0.128
HMLLFSVADIVKRSKRILSFKTDAELAAYFGVSRSTLSNWIARNSIDFPLLLSKMKDVDYTWLILGKGTPG | -3.97
HMLLLHINQMGVTEFSQLELNHVRSWLANLQIKGAARSSITRRVVSVRAFTYWGAKNGWLASDIGRDLVAP | -0.277
HMLLRVGGLVKDGSVRTDNDLGIKFIIEDNLAEVSVLYNGILPDLFREGQGVIAEGKFIDNIFIANEIVA | -0.519
HMLLSHTAQREGELLTFLRGELALSSGLVKRLKWQNAFFLDGAPVHTNARVKPGQEITVRIEE | -0.143
HMLLTEETLPQLKQIVDEFPYFQIARMLYLKNLAVLNDIRFSVELKKMSIYVPDRRKLFTLIEGE | 0.00426
HMLLTLPEDIITMVRQGTLSAGHARVLAGLESDEMKMTLARQTITNEWSVRQLENAVALMRKS | -0.0766
HMLLTPLEETRLVIEEIVIPQKLTIDLLPRSSAIRKLQHELITHYQLRGTSVGNEPNRRLRIYP | -0.244
HMLMNADVLVKYQEDHWIVISEKASQASDTFDKKEQAVERAKEIAKNKNSSVKVYKQDGTLQDTFDYS | 0.122
HMLMSDEENAEFTKLYRQLVFKLHPDLNPNQTKDEENLWHKVQMAYKGGDLEEMRSLAIILDAQ | -0.0474
HMLMTGSLQTKHGKYYVVVRIPDGLGNTKAKWINTGIPTDGNNKRKAQQRRIEILTELEENKD | -1.84
HMLMYAQDEKEEASNNIPYRLLHMSFTKEQKAELQRAMDVRVPKDIILSYFYPDTPVARMMEIRRQYESA | -0.472
HMLNDKLQTLFSLFPAVDKDLKKKGVTRQILWEQYKRNHPDGVGRSQFNYYYAQWKDQVNPT | -1.47
HMLNDMYAVMEIRGQGGELIAKLINQDGSPFYVKKGTTLQSGHVIDEITTTYVRAEKAGAKDYLYF | -0.0846
